Assay results: doi:10.1101/2025.03.09.642192

Assays:
[1] = molecular target: purified hexon protein from ChAdOx1 (chimpanzee adenovirus Y25 (ChAdOx1)); assay: SPR
[2] = molecular target: HAdV-C5 hexon protein (HAdV-C5) (UniProt P04133); assay: SPR
HAdV-C5 hexon protein (HAdV-C5), sequence (P04133 whole entry): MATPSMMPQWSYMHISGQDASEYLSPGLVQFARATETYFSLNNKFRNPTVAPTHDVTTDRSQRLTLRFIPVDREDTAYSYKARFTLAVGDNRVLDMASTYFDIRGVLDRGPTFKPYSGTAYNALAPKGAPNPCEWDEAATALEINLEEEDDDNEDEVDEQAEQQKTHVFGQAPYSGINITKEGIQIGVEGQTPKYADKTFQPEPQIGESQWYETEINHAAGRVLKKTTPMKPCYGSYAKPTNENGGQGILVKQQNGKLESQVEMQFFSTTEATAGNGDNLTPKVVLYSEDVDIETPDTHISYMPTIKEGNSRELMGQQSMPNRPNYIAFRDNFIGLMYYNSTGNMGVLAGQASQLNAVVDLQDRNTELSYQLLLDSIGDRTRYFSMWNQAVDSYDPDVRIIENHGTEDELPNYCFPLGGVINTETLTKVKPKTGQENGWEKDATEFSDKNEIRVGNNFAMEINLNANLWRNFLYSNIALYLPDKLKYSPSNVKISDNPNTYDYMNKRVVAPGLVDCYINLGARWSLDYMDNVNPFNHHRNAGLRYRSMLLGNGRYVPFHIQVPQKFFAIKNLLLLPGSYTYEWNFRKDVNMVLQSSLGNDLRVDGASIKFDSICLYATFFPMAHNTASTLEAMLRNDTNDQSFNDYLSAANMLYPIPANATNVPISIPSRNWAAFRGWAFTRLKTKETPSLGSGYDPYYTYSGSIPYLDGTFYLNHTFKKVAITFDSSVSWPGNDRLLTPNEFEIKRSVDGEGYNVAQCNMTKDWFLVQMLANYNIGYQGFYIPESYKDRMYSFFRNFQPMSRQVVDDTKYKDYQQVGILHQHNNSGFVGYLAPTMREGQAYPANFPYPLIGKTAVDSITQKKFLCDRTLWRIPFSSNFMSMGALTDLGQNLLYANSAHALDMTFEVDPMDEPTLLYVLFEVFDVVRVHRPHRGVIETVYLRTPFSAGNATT

platelet factor 4 (PF4) (natural protein)
Kd [1]: 296 nM | Kd [2]: 767 nM
